# B1: SPOPL (parent)
# chain: AKREETKAMESQRAYRFVQGKDWG
# Variants of: B1
# Experiment: protein stability index of a GFP-peptide fusion (GPS, HEK-293T) (PSI 1-6); higher = more stable
# Conditions: c terminus: a fixed tail appended
# 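Note: lentivirally expressed fusions sorted by FACS into six bins by GFP to DsRed ratio, PSI derived from sequencing read proportions per bin multiplied by bin number.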
row,Variant,protein stability index
1,AKREEKKAMESQRAYRFVQGKDWG [T6K],2.89
2,AKREESKAMESQRAYRFVQGKDWG [T6S],3.58
3,AKREEGKAMESQRAYRFVQGKDWG [T6G],2.56
4,AKREEWKAMESQRAYRFVQGKDWG [T6W],2.48
5,AKREEQKAMESQRAYRFVQGKDWG [T6Q],3.54
6,AKREEHKAMESQRAYRFVQGKDWG [T6H],3.2
7,AKREENKAMESQRAYRFVQGKDWG [T6N],3.34
8,AKREEVKAMESQRAYRFVQGKDWG [T6V],2.29
9,AKREELKAMESQRAYRFVQGKDWG [T6L],3.89
10,AKREERKAMESQRAYRFVQGKDWG [T6R],2.67
11,AKREEYKAMESQRAYRFVQGKDWG [T6Y],2.46
12,AKREEMKAMESQRAYRFVQGKDWG [T6M],2.32
13,AKREEPKAMESQRAYRFVQGKDWG [T6P],2.91
14,AKREEIKAMESQRAYRFVQGKDWG [T6I],2.34
15,AKREETKAMESQRAYDFVQGKDWG [R16D],4.07
16,AKREETKAMESQRAYAFVQGKDWG [R16A],3.69
17,AKREETKAMESQRAYCFVQGKDWG [R16C],3.77
18,AKREETKAMESQRRYRFVQGKDWG [A14R],3.18
19,AKREETKAMESQRQYRFVQGKDWG [A14Q],3.25
20,AKREETKAMESQRWYRFVQGKDWG [A14W],2.81
21,AKREETKAMESQREYRFVQGKDWG [A14E],3.67
22,AKREETKAMESQRHYRFVQGKDWG [A14H],3.38
23,AKREETKAMESQRPYRFVQGKDWG [A14P],2.83
24,AKREETKAMESQRIYRFVQGKDWG [A14I],3.8

row,Variant,protein stability index
1,AKREETKAMESQRNYRFVQGKDWG [A14N],3.24
2,AKREETKAMESQRSYRFVQGKDWG [A14S],3.3
3,AKREETKAMESQRFYRFVQGKDWG [A14F],3.49
4,AKREETKAMESQRCYRFVQGKDWG [A14C],2.82
5,AKREETKAMESQRKYRFVQGKDWG [A14K],3.98
6,AKREETKAMESQRDYRFVQGKDWG [A14D],3.1
7,AKREETKAMESQRVYRFVQGKDWG [A14V],3.42
8,AKREETKAMESQRYYRFVQGKDWG [A14Y],2.83
9,AKREETKAMESQRGYRFVQGKDWG [A14G],1.9
10,AKREETKAMESQRLYRFVQGKDWG [A14L],3.3
11,AKREETKAMESQRMYRFVQGKDWG [A14M],3.49
12,AKREETKAMESQRTYRFVQGKDWG [A14T],3.63
13,AKREETKAMESQRADRFVQGKDWG [Y15D],5.19
14,AKREETKAMESQRAMRFVQGKDWG [Y15M],3.02
15,AKREETKAMESQRAIRFVQGKDWG [Y15I],4.26
16,AKREETKAMESQRARRFVQGKDWG [Y15R],4.3
17,AKREETKAMESQRAGRFVQGKDWG [Y15G],4
18,AKREETKAMESQRAHRFVQGKDWG [Y15H],3.98
19,AKREETKAMESQRASRFVQGKDWG [Y15S],4.68
20,AKREETKAMESQRAFRFVQGKDWG [Y15F],1.39
21,AKREETKAMESQRAERFVQGKDWG [Y15E],4.26
22,AKREETKAMESQRAPRFVQGKDWG [Y15P],4.21
23,AKREETKAMESQRANRFVQGKDWG [Y15N],4.35
24,AKREETKAMESQRAVRFVQGKDWG [Y15V],3.92

row,Variant,protein stability index
1,AKREETKAMESQRAQRFVQGKDWG [Y15Q],3.89
2,AKREETKAMESQRACRFVQGKDWG [Y15C],2.9
3,AKREETKAMESQRAKRFVQGKDWG [Y15K],4.61
4,AKREETKAMESQRALRFVQGKDWG [Y15L],2.51
5,AKREETKAMESQRAWRFVQGKDWG [Y15W],3.25
6,AKREETKAMESQRAARFVQGKDWG [Y15A],4.14
7,AKREETKAMESQRATRFVQGKDWG [Y15T],4.7
8,AKREETYAMESQRAYRFVQGKDWG [K7Y],3.5
9,AKREETWAMESQRAYRFVQGKDWG [K7W],2.04
10,AKREETDAMESQRAYRFVQGKDWG [K7D],3.29
11,AKREETTAMESQRAYRFVQGKDWG [K7T],3.53
12,AKREETLAMESQRAYRFVQGKDWG [K7L],2.44
13,AKREETVAMESQRAYRFVQGKDWG [K7V],2.83
14,AKREETMAMESQRAYRFVQGKDWG [K7M],2.62
15,AKREETEAMESQRAYRFVQGKDWG [K7E],3.72
16,AKREETNAMESQRAYRFVQGKDWG [K7N],3.25
17,AKREETQAMESQRAYRFVQGKDWG [K7Q],3.04
18,AKREETAAMESQRAYRFVQGKDWG [K7A],3.52
19,AKREETHAMESQRAYRFVQGKDWG [K7H],2.8
20,AKREETRAMESQRAYRFVQGKDWG [K7R],2.57
21,AKREETIAMESQRAYRFVQGKDWG [K7I],2.72
22,AKREETCAMESQRAYRFVQGKDWG [K7C],1.78
23,AKREETFAMESQRAYRFVQGKDWG [K7F],2.9
24,AKREETSAMESQRAYRFVQGKDWG [K7S],3.23

row,Variant,protein stability index
1,AKREETPAMESQRAYRFVQGKDWG [K7P],3.37
2,AKREETGAMESQRAYRFVQGKDWG [K7G],3.23
3,AKREETKAMESQVAYRFVQGKDWG [R13V],2.28
4,AKREETKAMESQKAYRFVQGKDWG [R13K],3.67
5,AKREETKAMESQAAYRFVQGKDWG [R13A],3.65
6,AKREETKAMESQQAYRFVQGKDWG [R13Q],3.67
7,AKREETKAMESQWAYRFVQGKDWG [R13W],2.26
8,AKREETKAMESQMAYRFVQGKDWG [R13M],2.54
9,AKREETKAMESQFAYRFVQGKDWG [R13F],2.8
10,AKREETKAMESQLAYRFVQGKDWG [R13L],2.36
11,AKREETKAMESQNAYRFVQGKDWG [R13N],3.92
12,AKREETKAMESQGAYRFVQGKDWG [R13G],3.61
13,AKREETKAMESQIAYRFVQGKDWG [R13I],3.11
14,AKREETKAMESQTAYRFVQGKDWG [R13T],3.42
15,AKREETKAMESQSAYRFVQGKDWG [R13S],3.38
16,AKREETKAMESQHAYRFVQGKDWG [R13H],3.62
17,AKREETKAMESQCAYRFVQGKDWG [R13C],2.72
18,AKREETKAMESQDAYRFVQGKDWG [R13D],4.47
19,AKREETKAMESQEAYRFVQGKDWG [R13E],4.24
20,AKREETKAMESQPAYRFVQGKDWG [R13P],2.61
21,AKREETKAMESQYAYRFVQGKDWG [R13Y],3.32
22,AKREETKADESQRAYRFVQGKDWG [M9D],3.71
